For 4 molecules, Kd and stoichiometry N results are on record in doi:10.1101/2024.11.17.623997.

A word on the Kd: it is the concentration at which binding is half-saturated. A high value points to lower affinity. A word on the stoichiometry N: it is a count of units in the complex or per binding partner.

Where two headings read alike, the source gives them in different places.

In data set [1] the target is AcrVIB1-His (R. anatipestifer). Kind of data set: MST.
The target of data set [2] is AcrVIB1 (R. anatipestifer). Kind of data set: SEC-MALS.
Data set [3] deals with AcrVIB1 (R. anatipestifer). Kind of data set: other fluorescence titration.
The target of data set [4] is T1, PbuCas13b (UniProt E6K398 1-1127).
T1 sequence: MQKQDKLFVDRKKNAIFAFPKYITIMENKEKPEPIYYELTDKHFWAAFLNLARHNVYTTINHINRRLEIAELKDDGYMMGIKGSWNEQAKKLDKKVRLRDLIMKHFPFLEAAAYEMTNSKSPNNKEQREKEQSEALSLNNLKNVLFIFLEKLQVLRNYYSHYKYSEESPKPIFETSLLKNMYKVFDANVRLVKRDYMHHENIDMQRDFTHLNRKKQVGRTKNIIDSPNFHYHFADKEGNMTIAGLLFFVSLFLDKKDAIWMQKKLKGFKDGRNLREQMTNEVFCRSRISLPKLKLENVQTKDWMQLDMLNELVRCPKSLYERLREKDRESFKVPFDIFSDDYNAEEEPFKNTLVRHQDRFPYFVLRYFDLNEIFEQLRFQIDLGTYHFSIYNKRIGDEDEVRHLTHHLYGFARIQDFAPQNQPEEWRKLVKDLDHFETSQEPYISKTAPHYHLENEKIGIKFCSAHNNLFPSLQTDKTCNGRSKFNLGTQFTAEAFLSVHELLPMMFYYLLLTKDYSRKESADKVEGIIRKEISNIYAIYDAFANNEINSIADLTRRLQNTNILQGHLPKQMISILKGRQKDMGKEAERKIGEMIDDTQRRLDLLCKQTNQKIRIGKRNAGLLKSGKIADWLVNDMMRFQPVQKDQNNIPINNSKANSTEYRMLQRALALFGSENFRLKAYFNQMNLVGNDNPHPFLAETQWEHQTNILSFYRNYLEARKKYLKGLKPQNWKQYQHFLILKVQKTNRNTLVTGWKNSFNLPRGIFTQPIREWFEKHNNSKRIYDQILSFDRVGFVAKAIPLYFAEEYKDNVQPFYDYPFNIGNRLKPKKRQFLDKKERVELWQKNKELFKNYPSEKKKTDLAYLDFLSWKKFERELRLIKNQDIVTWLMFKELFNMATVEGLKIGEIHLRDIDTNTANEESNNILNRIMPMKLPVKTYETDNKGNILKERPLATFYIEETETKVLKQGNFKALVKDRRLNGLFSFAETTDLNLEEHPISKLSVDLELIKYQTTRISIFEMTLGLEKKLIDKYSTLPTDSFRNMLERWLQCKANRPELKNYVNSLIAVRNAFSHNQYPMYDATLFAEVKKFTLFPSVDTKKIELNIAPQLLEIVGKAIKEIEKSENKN
Kind of data set: MST.

Data set [5] deals with T1, PbuCas13b. Kind of data set: MST. This is another data set of the same source.

For the molecule PbuCas13b (enzyme), the dissociation constant Kd in data set [1] was determined as 44 nM. Consider “PbuCas13b Helical-2 domain (residues 579 - 747) (domain or fragment)”, for which the stoichiometry N in data set [2] worked out at 1. The same molecule returned a Kd in data set [3] of 251 nM.

B1: crRNA-1 processed (KW-RNA-002) (structured_RNA)
RNA: CGUCGCCGUCCAGCUCGACCAGGAUGGGAAGUUGCAUCUGCCUUCUUUUUGAAAGGUAAAAACAAC
For the molecule B1, the Kd with PbuCas13b [4] was around 1000 nM.

B2: crRNA-1 processed / target RNA 1 (KW-RNA-005) (mixed)
RNA 1: CGUCGCCGUCCAGCUCGACCAGGAUGGGAAGUUGCAUCUGCCUUCUUUUUGAAAGGUAAAAACAAC
RNA 2: ACUGGCGUUGUUCCCAUCCUGGUCGAGCUGGACGGCGACGUAAACGGCCA
With B2, the affinity with PbuCas13b [5], expressed as Kd, was 85 nM.
